Common to all, as to test: FCPIA (flow cytometry protein interaction assay, Luminex beads); Gαo affinities for RGS4Δ51N wild type and mutants on beads, with AMF
The target in assay [1] is MBP-RGS4Δ51N A95C in the -7C (UniProt P49799).
The target of assay [2] is MBP-RGS4Δ51N with no Cys in the RGS domain (UniProt P49799).
The target of assay [3] is MBP-RGS4Δ51N -7C mutant (all 7 cysteines removed) (UniProt P49799).
Assay [4] addresses MBP-RGS4Δ51N A71C in the -7C (UniProt P49799).
For assay [5], the target named is MBP-RGS4Δ51N with no Cys in the C-terminus (UniProt P49799).
The target of assay [6] is MBP-RGS4Δ51N A132C in the -7C (UniProt P49799).
For assay [7], the target named is MBP-RGS4Δ51N A148C in the -7C (UniProt P49799).

Sequence of Gαo, Alexa Fluor 532-labeled (P59215 whole entry): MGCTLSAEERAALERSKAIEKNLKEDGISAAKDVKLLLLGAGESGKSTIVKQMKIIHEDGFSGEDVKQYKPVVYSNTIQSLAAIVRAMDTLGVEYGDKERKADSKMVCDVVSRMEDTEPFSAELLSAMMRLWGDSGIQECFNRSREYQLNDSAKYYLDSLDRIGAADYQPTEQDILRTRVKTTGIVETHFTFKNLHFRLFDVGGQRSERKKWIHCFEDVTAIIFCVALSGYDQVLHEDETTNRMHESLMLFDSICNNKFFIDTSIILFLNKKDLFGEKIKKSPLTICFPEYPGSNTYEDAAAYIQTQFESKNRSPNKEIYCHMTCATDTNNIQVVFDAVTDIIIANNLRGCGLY

For orientation: Kd means the constant that tells how readily two partners part at equilibrium. A high value points to weaker binding. Turning to “Gαo, Alexa Fluor 532-labeled (from UniProt P59215 1-354) (natural protein)”, the Kd in assay [1] is 12 nM; in assay [2] it was 3.9 nM; in assay [3], 8.3 nM; in assay [4], 9.2 nM; in assay [5], 5 nM; in assay [6], 12.5 nM. Further, the Kd in assay [7] is 5.7 nM.

The record behind these values is PMC2700083, “A covalent peptide inhibitor of RGS4 identified in a focused one-bead, one compound library screen” (BMC Pharmacology, 2009).
